Assay results taken from article PMC10943247 (The EMBO Journal, 2024).

B1: FNIP1/FLCN complex (complex, human)
chain 1: MAPTLFQKLFSKRTGLGAPGRDARDPDCGFSWPLPEFDPSQIRLIVYQDCERRGRNVLFDSSVKRRNEDISVSKLGSDAQVKVFGKCCQLKPGGDSSSSLDSSVTSSSDIKDQCLKYQGSRCSSDANMLGEMMFGSVAMSYKGSTLKIHQIRSPPQLMLSKVFTARTGSSICGSLNTLQDSLEFINQDNNTLKADNNTVINGLLGNIGLSQFCSPRRAFSEQGPLRLIRSASFFAVHSNPMDMPGRELNEDRDSGIARSASLSSLLITPFPSPNSSLTRSCASSYQRRWRRSQTTSLENGVFPRWSIEESFNLSDESCGPNPGIVRKKKIAIGVIFSLSKDEDENNKFNEFFFSHFPLFESHMNKLKSAIEQAMKMSRRSADASQRSLAYNRIVDALNEFRTTICNLYTMPRIGEPVWLTMMSGTPEKNHLCYRFMKEFTFLMENASKNQFLPALITAVLTNHLAWVPTVMPNGQPPIKIFLEKHSSQSVDMLAKTHPYNPLWAQLGDLYGAIGSPVRLARTVVVGKRQDMVQRLLYFLTYFIRCSELQETHLLENGEDEAIVMPGTVITTTLEKGEIEESEYVLVTMHRNKSSLLFKESEEIRTPNCNCKYCSHPLLGQNVENISQQEREDIQNSSKELLGISDECQMISPSDCQEENAVDVKQYRDKLRTCFDAKLETVVCTGSVPVDKCALSESGLESTEETWQSEKLLDSDSHTGKAMRSTGMVVEKKPPDKIVPASFSCEAAQTKVTFLIGDSMSPDSDTELRSQAVVDQITRHHTKPLKEERGAIDQHQETKQTTKDQSGESDTQNMVSEEPCELPCWNHSDPESMSLFDEYFNDDSIETRTIDDVPFKTSTDSKDHCCMLEFSKILCTKNNKQNNEFCKCIETVPQDSCKTCFPQQDQRDTLSILVPHGDKESSDKKIAVGTEWDIPRNESSDSALGDSESEDTGHDMTRQVSSYYGGEQEDWAEEDEIPFPGSKLIEVSAVQPNIANFGRSLLGGYCSSYVPDFVLQGIGSDERFRQCLMSDLSHAVQHPVLDEPIAEAVCIIADMDKWTVQVASSQRRVTDNKLGKEVLVSSLVSNLLHSTLQLYKHNLSPNFCVMHLEDRLQELYFKSKMLSEYLRGQMRVHVKELGVVLGIESSDLPLLAAVASTHSPYVAQILL
chain 2: MNAIVALCHFCELHGPRTLFCTEVLHAPLPQGDGNEDSPGQGEQAEEEEGGIQMNSRMRAHSPAEGASVESSSPGPKKSDMCEGCRSLAAGHPGYISHDKETSIKYVSHQHPSHPQLFSIVRQACVRSLSCEVCPGREGPIFFGDEQHGFVFSHTFFIKDSLARGFQRWYSIITIMMDRIYLINSWPFLLGKVRGIIDELQGKALKVFEAEQFGCPQRAQRMNTAFTPFLHQRNGNAARSLTSLTSDDNLWACLHTSFAWLLKACGSRLTEKLLEGAPTEDTLVQMEKLADLEEESESWDNSEAEEEEKAPVLPESTEGRELTQGPAESSSLSGCGSWQPRKLPVFKSLRHMRQVLGAPSFRMLAWHVLMGNQVIWKSRDVDLVQSAFEVLRTMLPVGCVRIIPYSSQYEEAYRCNFLGLSPHVQIPPHVLSSEFAVIVEVHAAARSTLHPVGCEDDQSLSKYEFVVTSGSPVAADRVGPTILNKIEAALTNQNLSVDVVDQCLVCLKEEWMNKVKVLFKFTKVDSRPKEDTQKLLSILGASEEDNVKLLKFWMTGLSKTYKSHLMSTVRSPTASESRN
notes: Folliculin (FLCN), human; Calculated mass of the heterodimer printed as 195.8 kDa; also called FNIP1/FLCN heterodimer; source: HEK293F, BacMam baculovirus, purified (Ni-NTA, Strep Trap, TEV, Superose 6); not shown: mCherry, C-terminal, cleaved; His6, C-terminal, cleaved; 2x Strep-tag, C-terminal, cleaved
B2: MBP-BEX2 (natural protein)
chain: MESKEERALNNLIVENVNQENDEKDEKEQVANKGEPLALPLNVSEYCVPRGNRRRFRVRQPILQYRWDIMHRLGEPQARMREENMERIGEEVRQLMEKLREKQLSHSLRAVSTDPPHHDHHDEFCLMP
notes: Protein BEX2, human; source: E. coli BL21(DE3), purified (Ni-NTA, Superdex 200); not shown: MBP, N-terminal, kept

Tests used:
Details in all cases: both partners purified
[1] = target: T1, RBX1, as the subunit of CRL2^FEM1B (human, UniProt P62877 1-108); assay: cryo-EM structure; neddylated CRL2^FEM1B and FNIP1-FLCN mixed 1:1.2, 1 h at 4 °C, GraFix, 1.38 mg/ml
T1 construct: RING-box protein 1 (RBX1), human; primers RBX1-f/RBX1-r run from the start codon to the stop codon; Seen as a subunit of the complexes m1 and m7 in the cryo-EM structures; source: SF9 insect cells, co-expressed with CUL2, purified; within the reconstituted CRL2^FEM1B complex
T1 sequence (P62877 whole entry): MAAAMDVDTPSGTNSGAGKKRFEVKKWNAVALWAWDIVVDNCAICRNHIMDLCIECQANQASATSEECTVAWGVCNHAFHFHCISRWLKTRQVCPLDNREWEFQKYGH

[2] = target: T2, CRL2^FEM1B complex with FEM1B^F549S, unneddylated (human, UniProt Q13617 1-745; P62877 1-108; Q15370 1-104; Q15369 17-112; Q9UK73 1-627, F549S); assay: grating-coupled interferometry; Creoptix WAVE; MBP-BEX2 and FNIP1/FLCN amine-coupled to 4PCP chips; CRL2^FEM1B injected in a 1:3 dilution series from 1 μM in 10 mM HEPES pH 7.5, 150 mM NaCl, 50 μM ZnCl2, 25 °C; 1:1 kinetics model
T2 construct: Cullin-2 (CUL2), human; primers from the start codon to the last codon; RING-box protein 1 (RBX1), human; primers from the start codon to the stop codon; Elongin-B (ELOB), human, residues 1-104; Elongin-C (ELOC), human, residues 17-112; Protein fem-1 homolog B (FEM1B), human, F549S; also called CRL2FEM1B-F549S; source: CUL2/RBX1 from SF9 insect cells and mutant FEM1B/ELOB/ELOC from E. coli …

[3] = target: T3, CRL2^FEM1B complex with FEM1B^Y275R/L278R, unneddylated (human, UniProt Q13617 1-745; P62877 1-108; Q15370 1-104; Q15369 17-112; Q9UK73 1-627, Y275R | L278R); assay: as above
T3 construct: Cullin-2 (CUL2), human; primers from the start codon to the last codon; RING-box protein 1 (RBX1), human; primers from the start codon to the stop codon; Elongin-B (ELOB), human, residues 1-104; Elongin-C (ELOC), human, residues 17-112; Protein fem-1 homolog B (FEM1B), human, Y275R/L278R; also called CRL2FEM1B-Y275R/L278R; CRL2FEM1B-Y275RL278R; source: CUL2/RBX1 from SF9 insect cells and mutant …

[4] = target: T4, CRL2^FEM1B complex with FEM1B^F549T, unneddylated (human, UniProt Q13617 1-745; P62877 1-108; Q15370 1-104; Q15369 17-112; Q9UK73 1-627, F549T); assay: as above
T4 construct: Cullin-2 (CUL2), human; primers from the start codon to the last codon; RING-box protein 1 (RBX1), human; primers from the start codon to the stop codon; Elongin-B (ELOB), human, residues 1-104; Elongin-C (ELOC), human, residues 17-112; Protein fem-1 homolog B (FEM1B), human, F549T; also called CRL2FEM1B-F549T; source: CUL2/RBX1 from SF9 insect cells and mutant FEM1B/ELOB/ELOC from E. coli …

[5] = target: T5, CRL2^FEM1B complex with FEM1B^Δ546-553 (FEM1B^DEL), unneddylated (human, UniProt Q13617 1-745; P62877 1-108; Q15370 1-104; Q15369 17-112; Q9UK73 1-627, Δ546-553); assay: as above
T5 construct: Cullin-2 (CUL2), human; primers from the start codon to the last codon; RING-box protein 1 (RBX1), human; primers from the start codon to the stop codon; Elongin-B (ELOB), human, residues 1-104; Elongin-C (ELOC), human, residues 17-112; Protein fem-1 homolog B (FEM1B), human, with residues 546-553 deleted; also called CRL2FEM1B-DEL; source: CUL2/RBX1 from SF9 insect cells and mutant …

[6] = target: T6, CRL2^FEM1B complex with FEM1B^F549R, unneddylated (human, UniProt Q13617 1-745; P62877 1-108; Q15370 1-104; Q15369 17-112; Q9UK73 1-627, F549R); assay: as above
T6 construct: Cullin-2 (CUL2), human; primers from the start codon to the last codon; RING-box protein 1 (RBX1), human; primers from the start codon to the stop codon; Elongin-B (ELOB), human, residues 1-104; Elongin-C (ELOC), human, residues 17-112; Protein fem-1 homolog B (FEM1B), human, F549R; also called CRL2FEM1B-F549R; source: CUL2/RBX1 from SF9 insect cells and mutant FEM1B/ELOB/ELOC from E. coli …

Binder | binding result [1] | Kd [2] [nM] | Kd [3] [nM] | Kd [4] [nM] | Kd [5] [nM] | Kd [6] [nM]
B1 | binds | 17.5 | 3.13 | 33.3 | 4.72 | 8.99
B2 |  | 23 | 3.99 | 109 | 6.62 | 14
